Reference: publication PMC314469, “Protein Interaction Networks by Proteome Peptide Scanning” (PLoS Biology, 2004)

T1: Boi1 SH3 (BOI1_YEAST), P38041
T1 chain: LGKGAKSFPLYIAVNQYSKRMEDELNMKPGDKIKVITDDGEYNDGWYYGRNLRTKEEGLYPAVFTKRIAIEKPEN

T2: Boi2 SH3 (BOI2_YEAST), P39969
T2 chain: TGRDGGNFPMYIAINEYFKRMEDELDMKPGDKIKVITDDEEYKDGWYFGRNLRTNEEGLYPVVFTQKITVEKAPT

T3: Myo5 SH3 (MYO5_YEAST), Q04439
T3 chain: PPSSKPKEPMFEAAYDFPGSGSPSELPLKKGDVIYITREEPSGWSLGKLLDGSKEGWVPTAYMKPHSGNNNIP

T4: Rvs167 SH3 (RV167_YEAST), P39743
T4 chain: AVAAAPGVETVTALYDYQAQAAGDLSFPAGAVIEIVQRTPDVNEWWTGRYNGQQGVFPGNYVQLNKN

T5: Yfr024 SH3 (LSB3_YEAST), P43603
T5 chain: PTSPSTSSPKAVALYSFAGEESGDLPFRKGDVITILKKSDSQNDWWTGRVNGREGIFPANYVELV

T6: Yhr016c SH3 (YSC84_YEAST), P32793
T6 chain: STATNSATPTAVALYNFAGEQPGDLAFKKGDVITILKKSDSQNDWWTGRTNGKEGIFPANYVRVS


Key:
Assay in all cases: SPOT array
[1] = molecular target: T1, Boi1 SH3 (BOI1_YEAST), P38041
[2] = molecular target: T2, Boi2 SH3 (BOI2_YEAST), P39969
[3] = molecular target: T3, Myo5 SH3 (MYO5_YEAST), Q04439
[4] = molecular target: T4, Rvs167 SH3 (RV167_YEAST), P39743
[5] = molecular target: Sho1 SH3 (SHO1_YEAST), P40073
Sho1 SH3 (SHO1_YEAST), P40073, sequence (P40073 295-366): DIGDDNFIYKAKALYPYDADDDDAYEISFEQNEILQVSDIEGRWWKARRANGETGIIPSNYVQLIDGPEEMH

[6] = molecular target: T5, Yfr024 SH3 (LSB3_YEAST), P43603
[7] = molecular target: T6, Yhr016c SH3 (YSC84_YEAST), P32793

| normalised SPOT signal, Boehringer light units (BLU); mean over the file's lines of this peptide [1] | normalised SPOT signal, Boehringer light units (BLU); mean over the file's lines of this peptide [2] | normalised SPOT signal, Boehringer light units (BLU); mean over the file's lines of this peptide [3] | normalised SPOT signal, Boehringer light units (BLU); mean over the file's lines of this peptide [4] | normalised SPOT signal, Boehringer light units (BLU); mean over the file's lines of this peptide [5] | normalised SPOT signal, Boehringer light units (BLU); mean over the file's lines of this peptide [6] | normalised SPOT signal, Boehringer light units (BLU); mean over the file's lines of this peptide [7] | Binder |
| --- | --- | --- | --- | --- | --- | --- | --- |
| 418 | 23.6 | 620 | 269 | 416 | 969 | 65 | TSSSRRGPGRPRKD [YDR310C 200-213] |
| 86.4 | 0 | 1870 | 598 | 50.1 | 290 | 32.8 | TTTIKNRPVPPPLP [YPL140C 79-92] |
| 424 | 13 | 999 | 141 | 106 | 341 | 19.6 | TTRRKKDPNAPKRR [YBR089C-A 17-30] |
| 50 | 31.8 | 128 | 143 | 60.1 | 76.1 | 13 | TVSDRLIPTSPQKT [YGR146C 10-23] |
| 82.3 | 20.3 | 81.6 | 34.6 | 40.9 | 260 | 49.1 | TSWARDNPSKPDIA [YHR209W 243-256] |
| 607 | 23.7 | 309 | 97.7 | 44.7 | 266 | 68.7 | TTTYKSRPDRPKPV [YBR289W 757-770] |
| 416 | 40.3 | 275 | 78.7 | 108 | 388 | 54 | TTRKKKDPNAPKRA [YPR052C 11-24] |
| -0 | 20.8 | 1680 | 80 | 6.1 | 141 | 185 | TTKHKAPPPPPPTA [YOR181W 179-192] |
| 63 | 27.3 | 161 | 203 | 57.7 | 91.6 | 27.4 | TTNSRLSPSSPSSS [YJR038C 2-15] |
| 95.3 | -0 | 194 | 8.5 | 29.1 | 20.2 | 19 | TSISRISPQDPEAK [YDR109C 25-38] |
| 728 | 34.4 | 456 | 336 | 78.4 | 637 | 109 | TQSGRMGPSEPKHR [YML020W 26-39] |
| 29.7 | 6.7 | 142 | 35 | 18.6 | 36.9 | 21 | TSNTKWTPITPSVI [YDR515W 74-87] |
| 29.2 | 17.3 | 144 | 455 | 99 | 121 | 37.6 | TSSLRKPPNGPSSV [YOR097C 144-157] |
| 0 | 0.9 | 118 | 34.3 | 21 | 58.6 | 29.7 | TSSTKEKPTPPTTT [YIR019C 265-278] |
| 95.1 | 32.8 | 235 | 58.8 | 36.2 | 134 | 20.3 | TSGYKYFPQFPQLK [YOR227W 765-778] |
| 3490 | 12.6 | 46200 | 663 | 95.5 | 891 | 91.7 | TVRTRRRPPPPPIP [YNL094W 462-475] |
